Measured values taken from patent US20190218553, “VON WILLEBRAND FACTOR (VWF)-TARGETING AGENTS AND METHODS OF USING THE SAME” (DUKE UNIVERSITY, published 2019).

What was measured:
[1] = molecular target: T1, von Willebrand factor (VWF) (Homo sapiens, UniProt P04275 P04275:764-2813); assay: filter; Bmax 90%; 2 mM CaCl2, 37 C; details: tags: factor VIII free human purified VWF, Haematologic Technologies Inc; label: 5'-32P
Method: (§1) Affinity constants (Kd values) were determined using double-filter nitrocellulose filter binding assays (Rusconi et al, Thromb. Haemost. $4:841-848 (2000)). All binding studies were performed in binding buffer F (20 mM HEPES, pH 7.4, 150 mM NaCl, 2 mM CaCl₂, and 0.01% BSA) at 37° C. Human purified VWF (factor VIII free) was purchased from Haematologic Technologies Inc. (Essex Junction, Vt.) and used in the double-filter nitrocellulose filter binding assay to determine the Kd of the aptamers. Briefly, RNA were end-labeled at the 5′ end with T4 polynucleotide kinase (New England Biolabs, Beverly, Mass.) and [γ³²P] ATP (Amersham Pharmacia Biotech, Piscataway, N.J.) (Fitzwater and Polisky, Methods Enzymol. 267:275-301 (1996)). End-labeled RNA was diluted in binding buffer F, heat denatured at 65° C. for 5 minutes, and subsequently equilibrated at 37° C. Direct binding was performed by incubating trace ³²P-RNA with varying concentrations of VWF protein in binding buffer F at 37° C. for 5 min. The fraction of the nucleic acid-protein complex which bound to the nitrocellulose membrane was quantified with a phosphorimager (Molecular Dynamics, Sunnyvale, Calif.). Non-specific binding of the radiolabeled nucleic acid was subtracted out of the binding such that only specific binding remained (Wong and Lohman, Proc. Natl. Acad. Sci. USA 90:5428-5432 (1993)).

[2] = molecular target: T1, von Willebrand factor (VWF); assay: filter; Bmax 43%; 2 mM CaCl2, 37 C; details: tags: factor VIII free, Haematologic Technologies Inc; label: 5'-32P
Method: as §1

[3] = molecular target: T1, von Willebrand factor (VWF); assay: filter; Bmax 70%; 2 mM CaCl2, 37 C; details: tags: factor VIII free, Haematologic Technologies Inc; label: 5'-32P
Method: as §1

[4] = molecular target: T1, von Willebrand factor (VWF); assay: filter; Bmax 51%; 2 mM CaCl2, 37 C; details: tags: factor VIII free, Haematologic Technologies Inc; label: 5'-32P
Method: as §1

[5] = molecular target: T1, von Willebrand factor (VWF); assay: filter; Bmax 56%; 2 mM CaCl2, 37 C; details: tags: factor VIII free, Haematologic Technologies Inc
Method: as §1

[6] = molecular target: von Willebrand factor (VWF) in whole blood (Homo sapiens, UniProt P04275 P04275:764-2813); assay: inhibition; platelet adhesion to collagen under high shear, human whole blood; text gives 72.6; details: protein: extract; tags: endogenous, hirudin-anticoagulated human whole blood
Method: The Venaflux™ microfluidics system (Cellix, Dublin, Ireland) measures platelet adhesion on a collagen surface. Human blood was collected into hirudin tubes from healthy volunteers by vena puncture. An aliquot containing 300 μl of whole blood treated with aptamer or platelet-binding buffer alone was flowed through collagen-coated micro-channels at 60 dynes for 3 minutes. Channels were then rinsed with saline for 3 minutes to wash away RBC and unbound platelets. Venaflux imaging software and Image Pro Plus were used to image bound platelets and calculate covered surface area. Aptamer was incubated at 95° C. for 3 minutes, placed on ice for 3 minutes, then incubated for 10 minutes at room temperature. After cooling, aptamer was kept on ice until use. Total surface area covered by bound platelets in treated blood was expressed as a percentage of total coverage in negative control blood. Statistical significance was determined by analysis of variance; IC₅₀ of the aptamer was calculated using a fitted linear regression curve.
To evaluate the inhibitory effect of the aptamer on platelet adhesion, human whole blood samples were treated with aptamer starting at 900 nmol/L with 2-fold dilutions to 14 nmol/L and tested by measuring platelet adhesion under high-shear stress. The aptamer prevented platelet adhesion to the collagen surface in a dose-dependent manner (FIG. 20-22).

[7] = molecular target: T1, von Willebrand factor (VWF); assay: filter; Bmax 64%; 2 mM CaCl2, 37 C; details: tags: factor VIII free, Haematologic Technologies Inc; label: 5'-32P
Method: as §1

[8] = molecular target: T1, von Willebrand factor (VWF); assay: filter; Bmax 64.8%; 2 mM CaCl2, 37 C; details: tags: factor VIII free, Haematologic Technologies Inc; label: 5'-32P
Method: as §1

[9] = molecular target: T1, von Willebrand factor (VWF); assay: filter; Bmax 20%; 2 mM CaCl2, 37 C; details: tags: factor VIII free, Haematologic Technologies Inc; label: 5'-32P
Method: as §1

[10] = molecular target: T1, von Willebrand factor (VWF); assay: filter; Bmax 44%; 2 mM CaCl2, 37 C; details: tags: factor VIII free, Haematologic Technologies Inc; label: 5'-32P
Method: as §1

[11] = molecular target: T1, von Willebrand factor (VWF); assay: filter; Bmax 75%; 2 mM CaCl2, 37 C; details: tags: factor VIII free human purified VWF, Haematologic Technologies Inc; label: 5'-32P
Method: as §1

[12] = molecular target: T1, von Willebrand factor (VWF); assay: filter; Bmax 37%; 2 mM CaCl2, 37 C; details: tags: factor VIII free, Haematologic Technologies Inc; label: 5'-32P
Method: as §1

[13] = molecular target: T1, von Willebrand factor (VWF); assay: filter; NB (no binding); 2 mM CaCl2, 37 C; details: tags: factor VIII free, Haematologic Technologies Inc; label: 5'-32P
Method: as §1

[14] = molecular target: T1, von Willebrand factor (VWF); assay: filter; Bmax 50%; 2 mM CaCl2, 37 C; details: tags: factor VIII free, Haematologic Technologies Inc; label: 5'-32P
Method: as §1

B1: T94 vrt1 (ssRNA)
RNA: ACGAACUGCCCUCUUUUUUGACGCACAGACGU
modifications: 2'-F C2,U7,C9,C10,C11,U12,C22,C24,C30,U32; ribo A1,G3,G8,A21,G23,A25,G31; rest 2'-OMe; 3' idT
B1 was tested, and the Kd [1] was 0.9 nM.

B2: T22 (ssRNA)
RNA: GGACGAACUGCCCUCAGCUACUUUCAUGUUGCUGACGCACAGACGACUCGCUG
modifications: 2'-F C and U; 2'-OH A and G
For B2, the Kd [2] was 28 nM.

In the case of ACGAACUGCCCUCGAUCGACGCACAGACGU (ssRNA, mAmCmGmAmAmCfUmGfCfCfCmUmCmGmAmUmCmGmAfCrGfCmAmCmAmGmAmCmGfU-idT) [T59 vrt17], the Kd [3] is reported as 13 nM.

B3: T10 (ssRNA)
RNA: GGGAGGUGGACGAACUGCCCUCAGCUACUUUCAUGUUGCUGACGCACAGACGACUCGCUG
modifications: 2'-F C and U; 2'-OH A and G; 3' idT
Binder B3 has a Kd [4] of 18.4 nM.

In the case of ACGAACUGCCCUCGAUCGACGCACAGACGUUUUUU (ssRNA, mAmCmGmAmAmCmUmGfCfCfCmUmCmGmAmUmCmGmAfCfGfCmAmCmAmGmAmCmGmUmUmUmUmUmU-idT) [T79 vrt7 (DTRI-031)], the Kd [5] is reported as 11.2 nM and the IC50 [6] is reported as 72.5 nM.

In the case of ACGAACUGCCCUCGAUCGACGCACAGACGUUUUUU (ssRNA, 2'-F C and U; 2'-OH A and G; 3' idT) [T79], the Kd [7] is reported as 1.6 nM.

Work on ACGAACUGCCCUCGUAAGACGCACAGACGUUUUUU (ssRNA, mAmCmGmAmAmCmUmGfCfCfCmUmCmGmUmAmAmGmAfCrGfCmAmCmAmGmAmCmGmUmUmUmUmUmUidT) [DTRI-019] yielded a Kd [8] of 4.3 nM.

ACGAACUGCCCUCGAUCGACGCACAGACGUUUUUU (ssRNA, mAmCmGmAmAmCmUmGfCfCfCmUmCmGmAmUmCmGmAfCmGfCmAmCmAmGmAmCmGfUmUmUmUmUmU-idT) [T79 vrt3] showed a Kd [9] of 66 nM.

For ACGAACUGCCCUCGAUCGACGCACAGACGU (ssRNA, mAmCmGmAmAmCmUmGfCfCfCmUmCmGmAmUmCmGmAfCfGfCmAmCmAmGmAmCmGfUidT) [DTRI-007], the Kd [10] was 16 nM.

Binder ACGAACUGCCCUCGUAUUAUUUCGACGCACAGACGU (ssRNA, 2'-F C9,C10,C11,C26,G27,C28; rest 2'-OMe; 3' idT) [T89 vrt7] has a Kd [11] of 38.5 nM.

In the case of CCCACGAACUGCCCUCGAUCGACGCACAGACGU (ssRNA, 2'-F C and U; 2'-OH A and G; 3' idT) [T74], the Kd [12] is reported as 23 nM.

B4: T12 (ssRNA)
RNA: GGGAGGAACUGCCCUCAGCUACUUUCAUGUUGCUGACGCACAGACGACUCGCUG
modifications: 2'-F C and U; 2'-OH A and G
B4: no binding [13].

In the case of ACGAACUGCCCUCAGACUUUCAUGUCUGACGCACAGACGU (ssRNA, 2'-F C and U; 2'-OH A and G; 3' idT) [T39], the Kd [14] is reported as 11 nM.
